From patent US9956304B2, “Contrast agents, methods for preparing contrast agents, and methods of imaging” (GEORGIA STATE UNIVERSITY RESEARCH FOUNDATION, INC., priority 2012, dated 2018)
Several values for one entry are separate records, joined by “and”; a condition that tells them apart may be missing. Equal values may be shown once.

Tests used:
[1] = r1 and r2 relaxivity, mini-spec 60 MHz 37 C; format: physicochemical
[2] = mouse, in vivo
[3] = r1 relaxivity at 7 T, inversion recovery; format: physicochemical; details: room temperature
Text: With the development of high field MRI scanner, there is a strong need to develop the contrast agents with high relaxivity in high magnetic field strength. However, the relaxivity of macromolecular contrast agents always has dramatic drop at high magnetic field. Caravan and Luther point out the contrast agents with optimized relaxivity in high field should have a rotation correlation time (τR) around 2 ns. We tested our Gd-calcium-binding protein variants in 7 T Varian MRI scanner using inversion recovery sequence. […] Other ProCA3s also have a per Gd r1 relaxivity around 20 mM^−1s^−1 at 7 T and room temperature.

[4] = In vitro MRI detection limit, T1-weighted spin echo at 7 T; format: physicochemical; details: printed partly as 'at least'
Text: Less contrast agents are acquired to acquired good image enhancement when the relaxivity of the contrast agent improved.

[5] = T1- and T2-weighted MRI of liver and blood vessels; format: in vivo, mice
Method: Because the enhanced T1- and T2-weighted images have different effects of imaging contrast (brighter or darker, respectively), there is an enhanced probability of detecting the targeted tumor tissue. In contrast, the currently available approved liver contrast agents such as Eovist® have a very short fast phase (sec.) and liver uptake phase (approximately 3 min) in human. The mouse halftime is much shorter. Due this limitation, with these agents, it is not possible to obtain both high quality imaging for small animal. For human, their applications are also limited by their low relaxivity and short half-life. It is possible to obtain very high quality imaging by applying our contrast agent to both low and high field strengths such as 0.47-9.4 T.
Longer blood circulation of ProCA will benefit the MRI guided intervention therapy […], since such therapy usually performed for a very long time. Long blood circulation time of ProCA32 in blood also promising for the application of DCE-MRI. Arterial input function (AIF) in DCE-MRI experiment is the key experiment for successful calculating tumor permeability. However, it is hard to accurate determine AIF of current clinically available MRI contrast agents, since the blood circulation time of current clinically available MRI contrast agents is too short. […]

[6] = mouse, in vivo; remark: listed apart in the source
[7] = Heat stability during purification; format: physicochemical
Method: These protein solutions were load to FPLC equipped with Hi-trap Q column. After binding to the column, the unbounded component was first washed with 7 column volumes (CV) of buffer A (10 mM HEPES buffer at pH 8.0). Then, buffer B (10 mM HEPES buffer, 1 M NaCl at pH 8.0) concentration was increased to 25% within 7 CV. The column was further washed with 25% of buffer B for 2 CV and then increase to 100% of buffer B of 1 CV to wash out every component bounded to the column. The fractions with ProCA32 elutions were determined by UV abs and SDS-PAGE.

[8] = Serum stability (SDS-PAGE, mass spectrum, immuno-blot); details: 50% serum
[9] = Water coordination number by Tb3+ luminescence lifetime; format: physicochemical; details: Tb^3+ luminescence lifetime in H2O and D2O
Method: The water coordination number of Tb^3+ in ProCA was measured by Tb^3+ luminescence lifetime experiments. The determined water number for calcium-binding protein WT is 1.3, which is consistent with reported value^31.
Tb^3+ luminescent life time decay in H2O and D2O solvents is measured to characterize the water coordination number of the inner sphere of metal binding sites. WT calcium-binding protein has averaged water number of 1.3, which is consistent with reported value.

[10] = Gd3+ binding affinity by Tb3+-chelator buffer system and Gd3+ competition; details: vs wild type protein scaffold

B1: ProCA32: parvalbumin-scaffold protein MRI contrast agent with two Gd3+ binding sites; calcium-binding protein variant (S56D, F103W) (protein)
chain: MSMTDLLNAEDIKKAVGAFSATDSFDHKKFFQMVGLKKKSADDVKKVFHMLDKDKDGFIEEDELGFILKGFSPDARDLSAKETKMLMAAGDKDGDGKIGVEEWSTLVAES
modifications: Gd3+ bound; ProCA3
- per Gd r1 [1]: 30 mmol⁻¹ s⁻¹
- per particle r1 [1]: 60 mmol⁻¹ s⁻¹
- blood half-life longer than that of Gd-DTPA [2]: more than 100 times
- per Gd r1 relaxivity at 7 T [3]: 18 mM⁻¹ s⁻¹
- concentration detectable in vitro by MRI [4]: 2.5 µM and 2 µM
- liver in T2-weighted sequence ([5]; 7 min after tail vein injection): the liver became darker
- liver in T1-weighted spin echo ([5]; 15 min): the liver showing enhanced an MR signal
- clearance [6]: about 0.13 l/kg
- excretion half-life [6]: around 2.8 hours
- heat stability [7]: very stable at 90 °C
- stable in serum [8]: at least 3 days
- water coordination number [9]: 0.4
- water coordination number ([9]; listed as PROCA32): 0.44
- higher Tb^3+ and Gd^3+ binding affinity compared with wild type [10]: 10^11 fold
